Assay results reported in US20120021993A1 (AJOU UNIVERSITY INDUSTRY ACADEMIC COOPERATION FOUNDATION, published 2012).
Like-named read-outs stand apart in the source and are kept apart here. Values belong to the binder of their own block, whether it stands above or below them.

Columns and labels:
[1] = biological target: T1, TNFα, extracellular domain (amino acid residue 1-157), 6xHis tag (human, UniProt P01375 57-233); assay: cell-based or functional assay
DcR1 [2] = biological target: T2, DcR1 (UniProt O14798 26-221, limits assumed); assay: yeast display, flow cytometry MFI
T2 sequence (looked up): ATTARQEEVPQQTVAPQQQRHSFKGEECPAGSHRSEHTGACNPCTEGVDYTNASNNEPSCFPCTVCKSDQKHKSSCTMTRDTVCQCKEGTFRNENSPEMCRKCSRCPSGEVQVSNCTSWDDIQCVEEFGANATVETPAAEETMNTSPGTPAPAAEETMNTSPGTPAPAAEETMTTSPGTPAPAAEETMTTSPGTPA

DcR2 [3] = biological target: T3, DcR2 (UniProt Q9UBN6 56-211, limits assumed); assay: yeast display, flow cytometry MFI
T3 sequence (looked up): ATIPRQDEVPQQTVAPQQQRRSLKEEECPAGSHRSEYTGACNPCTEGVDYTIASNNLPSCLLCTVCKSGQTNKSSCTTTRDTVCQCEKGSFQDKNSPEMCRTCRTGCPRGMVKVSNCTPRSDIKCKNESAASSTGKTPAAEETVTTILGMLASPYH

[4] = biological target: T1, TNFα, extracellular domain (amino acid …); assay: ELISA, coated target, A405
[5] = biological target: T1, TNFα, extracellular domain (amino acid …); assay: ELISA, coated target, A405; remark: listed apart in the source
Procedure: (§1) In order to measure the affinity and cross reactivity of the anti-DR4, -DR5 and -TNFα protein scaffold variants based on the Kringle domain structure to the target molecules, an enzyme-linked immunosorbent assay (ELISA) was performed. The target molecules DR4, DR5, TNFα and DcR1, DcR2 were attached to a 96 well EIA/RIA plate (COSTARCorning In., USA) by its reaction at 37° C. for 1 hour, and washed three times with 0.1% PBST (0.1% Tween20, pH 7.4, 137 mM NaCl, 10 mM Phosphate, 2.7 mM KCl, SIGMA-ALDRICH Co., USA) for 10 minutes. The target molecules were attached for 1 hour to a 96 well EIA/RIA plate in 1% PBSB (1% BSA, pH 7.4, 137 mM NaCl, 10 mM Phosphate, 2.7 mM KCl, SIGMA-ALDRICH Co., USA), and then washed three times with 0.1% PBST (0.1% Tween 20, pH 7.4, 137 mM NaCl, 10 mM Phosphate, 2.7 mM KCl, SIGMA-ALDRICH Co., USA) for 10 minutes. Then, the anti-DR4, -DR5 and -TNFα Kringle domain variants were bound, and washed three times with 0.1% PBST for 10 minutes. The anti-DR4, -DR5 and -TNFα Kringle domain variants were primarily bound to mouse-derived anti-c-myc 9e10 mAb (Ig Therapy, Korea), and secondarily bound to alkaline phosphatase (AP)-conjugated anti-mouse mAb (Sigma). Each of the Kringle domain variants was reacted with […] (pNPP, Sigma-aldrich Co., USA) and quantified at an absorbance of 405 nm.

[6] = biological target: T1, TNFα, extracellular domain (amino acid …); assay: affinity ELISA, target coated on the plate
Procedure: as §1
In order to analyze the affinities of the Fc-fused anti-DR4, -DR5 and -TNFα Kringle domains to target molecules, the affinities of the Fc-fused anti-DR4, -DR5 and -TNFα Kringle domains to the target molecules were analyzed using ELISA, as described in Example 8.

cell surface DR5 = cell surface DR5 (human, UniProt O14763 56-440); assay: cell-based or functional assay
[7] = biological target: T4, human-derived cell death receptor 5, extracellular domain (amino acid residues 1-130), 6xHis tag (human, UniProt O14763 56-210); assay: ELISA, coated DR5, A405
T4 construct: extracellular domain; Expressed in E. coli; biotinylated for sorting and flow cytometry; also called DR5; TRAIL-receptor 2

[8] = biological target: T4, human-derived cell death receptor 5, …; assay: ELISA, coated target, A405
[9] = biological target: T4, human-derived cell death receptor 5, …; assay: ELISA on coated DR5, KD506 alone, A405
[10] = biological target: T4, human-derived cell death receptor 5, …; assay: ELISA, coated target, A405 [upper panel]
Procedure: as §1

cell surface DR4 = biological target: T5, cell surface DR4 (human, UniProt O00220 24-468); assay: flow cytometry on BJAB(DR5-/-) cells, MFI
T5 construct: whole, on cells; also called DR4 on cell surfaces

[11] = biological target: T6, human-derived cell death receptor 4, extracellular domain (amino acid residues 1-216), 6xHis tag (human, UniProt O00220 24-239); assay: yeast display, flow cytometry MFI [panel KD506]
T6 construct: extracellular domain; Expressed in E. coli; biotinylated for sorting and flow cytometry; residues 1-216; also called DR4; TRAIL-receptor 1

DcR1 [12] = biological target: T2, DcR1; assay: yeast display, flow cytometry MFI [panel KD506]
DcR2 [13] = biological target: T3, DcR2; assay: yeast display, flow cytometry MFI [panel KD506]
[14] = biological target: T4, human-derived cell death receptor 5, …; assay: competitive ELISA on coated DR5, biotinylated KD506 with TRAIL (amount not given), A405
[15] = biological target: T1, TNFα, extracellular domain (amino acid …); assay: ELISA, homo-dimer against monomer
[16] = biological target: T1, TNFα, extracellular domain (amino acid …); assay: ELISA, target coated on the plate

T1 sequence (P01375 other isoform, or with tags, fused parts or gaps limits assumed): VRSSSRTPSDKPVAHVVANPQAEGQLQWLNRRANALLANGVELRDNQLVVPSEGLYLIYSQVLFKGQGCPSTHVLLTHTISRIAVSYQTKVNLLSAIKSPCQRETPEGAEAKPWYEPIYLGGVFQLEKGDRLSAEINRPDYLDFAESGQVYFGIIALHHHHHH

binding result (DcR1 [2]): no binding
binding result (DcR2 [3]): no binding
B1: KDT26 (designed binder)
chain: CPRDQGNQYDGFRYGTYRGHRCQHWTRDEPHFHGFGHQHKYTYRHKKNYCRNPDARPRPWCFTHRYQNRNELCHQPRC
notes: Soluble monomer from Pichia pastoris; also called KRT26; anti-TNFα Kringle domain variant KDT26; not shown: C-terminal myc tag-6xHis tag of pPICZaA
IC50 (50% inhibiting concentration) of TNFα-mediated cell death, WEHI 164, MTT assay [1]: 780 nM
EC50 (read off the curve) [4]: ~80 nM
EC50 (read off the curve) [5]: ~80 nM

B2: KDT26-Fc (Fc fusion)
chain: B1 chain
notes: Disulfide-linked dimer from Pichia pastoris; also called KRT26-Fc; Fc-fused anti-TNFα Kringle domain KDT26; not shown: Fc domain region from a hinge of human immunoglobulin G1
IC50 (50% inhibiting concentration) of TNFα-mediated cell death, WEHI 164, MTT assay [1]: 5.2 nM
affinity [6]: 3.8 nM

binding result (cell surface DR4): no binding
binding result (DcR1 [12]): no binding
binding result (DcR2 [13]): no binding
B3: KD506 (designed binder)
chain: CPEDRGHEYDGDGDKTNRGHGCQYWDQNKPHHHGHRDKDKFKHRIKKNYCRNPDYETGPWCFTNRYRNKNELCHEPRC
notes: Soluble monomer from Pichia pastoris; also called anti-DR5 Kringle domain variant KD506; KR506; not shown: C-terminal myc tag-6xHis tag of pPICZaA
EC50 (a concentration of protein causing a 50% cell death), HL60, MTT assay (cell surface DR5): 210 nM
EC50 (a concentration of protein causing a 50% cell death), Jurkat, MTT assay (cell surface DR5): 200 nM
EC50 (read off the curve) [7]: ~300 nM
EC50 (read off the curve) [8]: ~300 nM
EC50 (read off the curve) [9]: ~100 nM
EC50 (read off the curve) [10]: ~300 nM
binding result [11]: no binding
EC50 (read off the curve) [14]: ~100 nM

fold increase of affinity against the monomer [15]: ~10 fold
affinity value [16]: 8 nM
B4: anti-TNFα KDT26 homo-dimer (designed binder)
chain: CPRDQGNQYDGFRYGTYRGHRCQHWTRDEPHFHGFGHQHKYTYRHKKNYCRNPDARPRPWCFTHRYQNRNELCHQPRCGGGGSGGGGSGGGGSGGGGSCPRDQGNQYDGFRYGTYRGHRCQHWTRDEPHFHGFGHQHKYTYRHKKNYCRNPDARPRPWCFTHRYQNRNELCHQPRC
